What was measured:
[1] = target: Prp43;Pxr1M (Saccharomyces cerevisiae;Saccharomyces …, UniProt P53131;P53335 1-767;72-137, |); assay: fluorescence polarization; 5 mM Mg2+, no nucleotide listed; affinity unaltered vs Prp43 alone; 50 mM HEPES pH 7.5, 50 mM KCl, 5 mM MgCl2, 0.05% Tween-20, 1 mM DTT; 5 nM Cy5-U12 RNA, protein 20 pM to 2.5 uM; temperature not stated; conditions: protein: recombinant;recombinant; tags: His6 (HRV site; pET47b);GST (pGEX-6P-1; copies: 1;1; single strand
[2] = target: Prp43;Tma23M (Saccharomyces cerevisiae;Saccharomyces …, UniProt P53131;Q03525 1-767;43-111, |); assay: as above; conditions: protein: recombinant;recombinant; tags: His6 (HRV site; pET47b);GST (pGEX-6P-1; copies: 1;1; single strand
[3] = target: Prp43 (Saccharomyces cerevisiae, UniProt P53131 1-767); assay: fluorescence polarization; 5 mM Mg2+, no nucleotide listed; 50 mM HEPES pH 7.5, 50 mM KCl, 5 mM MgCl2, 0.05% Tween-20, 1 mM DTT; 5 nM Cy5-U12 RNA, protein 20 pM to 2.5 uM; temperature not stated; conditions: protein: recombinant; tags: His6 (HRV site; pET47b); single strand

Measured: binding result

Sequence of Prp43;Pxr1M (P53131 whole entry, chain 1 of 2): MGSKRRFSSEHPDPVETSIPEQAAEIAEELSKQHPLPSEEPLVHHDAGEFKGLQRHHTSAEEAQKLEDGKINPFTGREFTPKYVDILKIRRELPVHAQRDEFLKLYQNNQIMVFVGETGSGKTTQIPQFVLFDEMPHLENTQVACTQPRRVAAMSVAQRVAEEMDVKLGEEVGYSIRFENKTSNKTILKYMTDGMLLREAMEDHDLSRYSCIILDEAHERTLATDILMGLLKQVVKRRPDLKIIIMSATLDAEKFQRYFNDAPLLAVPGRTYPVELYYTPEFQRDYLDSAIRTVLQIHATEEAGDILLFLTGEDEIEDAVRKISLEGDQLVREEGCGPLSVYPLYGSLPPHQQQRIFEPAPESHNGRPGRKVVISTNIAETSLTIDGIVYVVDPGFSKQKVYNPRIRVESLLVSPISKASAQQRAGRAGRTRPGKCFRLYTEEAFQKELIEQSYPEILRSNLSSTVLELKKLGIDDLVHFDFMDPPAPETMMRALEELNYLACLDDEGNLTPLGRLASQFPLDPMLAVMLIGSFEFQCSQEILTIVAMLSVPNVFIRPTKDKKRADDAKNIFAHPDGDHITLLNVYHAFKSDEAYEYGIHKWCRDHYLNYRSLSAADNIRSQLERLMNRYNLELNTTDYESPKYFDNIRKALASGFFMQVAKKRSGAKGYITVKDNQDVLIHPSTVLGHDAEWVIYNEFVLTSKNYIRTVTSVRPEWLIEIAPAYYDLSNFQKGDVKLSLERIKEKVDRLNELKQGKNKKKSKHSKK
Sequence of Prp43;Pxr1M (P53335 72-137, chain 2 of 2): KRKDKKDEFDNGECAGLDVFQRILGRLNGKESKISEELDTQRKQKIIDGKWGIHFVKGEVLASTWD
Sequence of Prp43 (P53131 whole entry): as the sequence (P53131 whole entry, chain 1 of 2) above
Sequence of Prp43;Tma23M (P53131 whole entry, chain 1 of 2): as above
Sequence of Prp43;Tma23M (Q03525 43-111, chain 2 of 2): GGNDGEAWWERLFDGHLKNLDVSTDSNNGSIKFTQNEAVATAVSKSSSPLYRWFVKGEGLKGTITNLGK

UUUUUUUUUUUU (ssRNA) [Cy5-U12 RNA]
binds: all assays above

From PMC11584650, “An inhibitory segment within G-patch activators tunes Prp43-ATPase activity during ribosome assembly”
